Measurements reported in patent publication US20140162285A1, “Methods of Modulating Vesicular Trafficking” (The General Hospital Corporation, priority 2009, published 2014).
Entries after “also recorded” stand apart in the source; their conditions may differ. Square brackets hold non-standard residues; d marks the D form. Ends that are not written are not given here. * marks the point of attachment. Biotin = O=C1N[C@H]2[C@H](CS[C@H]2CCCCC(=O)*)N1; pS = N[C@@H](COP(=O)(O)O)C(=O)O

T1: GST-ARNO(wt) (Homo sapiens, UniProt Q99418)
T1 construct: i) 1-400aa, full length ARNO(wt); made in house; host or cells: E. coli BL21(DE3)
T1 sequence (Q99418 1-400): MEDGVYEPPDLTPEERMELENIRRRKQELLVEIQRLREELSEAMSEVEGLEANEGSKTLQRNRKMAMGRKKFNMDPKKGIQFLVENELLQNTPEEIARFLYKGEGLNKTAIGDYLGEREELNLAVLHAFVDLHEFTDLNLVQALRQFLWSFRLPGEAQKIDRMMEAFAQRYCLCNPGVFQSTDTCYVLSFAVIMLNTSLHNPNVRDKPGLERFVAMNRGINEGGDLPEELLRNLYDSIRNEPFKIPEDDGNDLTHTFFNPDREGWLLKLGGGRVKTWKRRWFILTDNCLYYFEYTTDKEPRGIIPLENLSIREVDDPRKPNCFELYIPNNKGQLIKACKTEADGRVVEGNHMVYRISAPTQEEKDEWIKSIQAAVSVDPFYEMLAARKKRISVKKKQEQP

T2: 6His-a2N(wt) (Mus musculus, UniProt P15920)
T2 construct: amino acid residues 1-402 of mouse V-ATPase a2-subunit (a2N1-402); made in house; host or cells: cell-free in vitro translation
T2 sequence (P15920 1-402): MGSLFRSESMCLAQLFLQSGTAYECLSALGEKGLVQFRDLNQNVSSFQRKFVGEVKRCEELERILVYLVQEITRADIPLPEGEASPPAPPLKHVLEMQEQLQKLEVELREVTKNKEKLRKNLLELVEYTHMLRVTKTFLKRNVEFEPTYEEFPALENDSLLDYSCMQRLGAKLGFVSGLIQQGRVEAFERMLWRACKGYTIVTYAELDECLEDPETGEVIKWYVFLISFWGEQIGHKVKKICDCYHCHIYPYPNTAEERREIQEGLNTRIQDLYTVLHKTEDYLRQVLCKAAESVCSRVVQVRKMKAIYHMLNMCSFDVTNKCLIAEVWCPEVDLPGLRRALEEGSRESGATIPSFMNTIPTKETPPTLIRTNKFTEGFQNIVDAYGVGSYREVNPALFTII

T3: purified 6His-a2N (recombinant a2N protein, a2N1-402, expressed in E. coli and refolded) (mouse, UniProt P15920 1-402)
T3 construct: Immobilised by amine coupling on a CM4 chip for SPR; also called a2N(wt); a2N-His6(wt)
T3 sequence: T2 sequence (P15920 1-402)

B1: GST-ARNO(wt) (other, human, UniProt Q99418 1-400, looked up)
chain: T1 sequence (Q99418 1-400)
notes: range 1-400; Double-tagged construct (N-terminal GST, C-terminal 6xHis); also called full length ARNO(wt); wild-type ARNO; not shown: N-terminal GST-tag from the pGEX6P-1 vector; C-terminal 6xHis-tag

Key:
[1] = molecular target: T1, GST-ARNO(wt); experiment: a2N-derived peptide pull-down assay with GST-ARNO(wt); assay type: binding; set-up: key to interaction with ARNO (asterisk mark in Table 1): The interacting peptides are indicated in bold with an asterisk (*); settings: for interaction of a2N-derived peptide with GST-ARNO(wt) in pull-down: Western blot anti-GST, GST-only as control; for interaction with ARNO (asterisk mark in Table 1): biotin-tagged peptides on streptavidin beads
Procedure: FIG. 2A is an image of a Western blot showing the results of an a2N-derived peptide pull-down assay. The indicated a2N-derived peptides were immobilized on streptavidin-beads and incubated with purified recombinant GST-ARNO(wt). Interacting complexes were eluted and analyzed by Western blotting using monoclonal anti-GST antibodies.
FIG. 2B is an image of a Western blot showing the results of a pull-down assay with selected a2N-derived interacting peptides incubated with either GST (negative control) or GST-ARNO(wt). The first two lanes show the patterns obtained when either GST-only (lane 1) or GST-ARNO(wt) (lane 2) were loaded onto the gel.
Peptides were synthesized, purified by HPLC and analyzed by mass spectrometry in the MGH Peptide/Protein Core Facility. All a2N-derived peptides were synthesized with a biotin-tag on the N-terminus for immobilization on streptavidin-agarose beads and with an additional C-terminal cysteine residue for immobilization on beads using sulfhydryl-specific crosslinkers. A peptide corresponding to the PB-domain of ARNO was synthesized containing either a non-phosphorylated or a phosphorylated Ser392 residue. Peptide stock solutions were prepared in DMSO at 5 mM concentration and stored at −20° C. […]

[2] = molecular target: T2, 6His-a2N(wt); experiment: ARNO-derived peptide pull-down with in vitro translated 6His-a2N(wt); assay type: binding; settings: 7 nmol biotin-tagged peptide on streptavidin-agarose beads
Procedure: FIGS. 4B-C are images of Western blots showing (4B) the results of peptide pull-down assays for interaction of a2N with Sec7-PH-linker of ARNO and (4C) phosphorylation-dependent interaction of a2N with ARNO-derived peptide corresponding to the PB-domain of ARNO. Corresponding ARNO-derived peptides were immobilized on streptavidin-beads and incubated with in vitro translated recombinant a2N. Interacting complexes were eluted and analyzed by Western blotting using anti-a2N antibodies.
ARNO-derived peptides, equal amounts (7 nmol) of biotin-tagged synthetic peptides were also immobilized on streptavidin-agarose beads followed by incubation with 10 μl of in vitro translated 6His-a2N(wt) recombinant protein. Pull-down experiments and SDS-PAGE analysis were performed as described above and interacting 6His-a2N/ARNO-derived-peptide complexes were analyzed by Western blotting using polyclonal anti-a2N antibody. All experiments were repeated at least three times with similar results.

[3] = molecular target: T4, GST-only (UniProt P08515 1-218 = GST); experiment: peptide pull-down: biotinylated peptide on streptavidin-agarose beads, GST-only in solution, Western blot with anti-GST antibody
T4 construct: Control bait/prey in pull-down assays; also called GST (negative control)
T4 sequence (P08515 whole entry): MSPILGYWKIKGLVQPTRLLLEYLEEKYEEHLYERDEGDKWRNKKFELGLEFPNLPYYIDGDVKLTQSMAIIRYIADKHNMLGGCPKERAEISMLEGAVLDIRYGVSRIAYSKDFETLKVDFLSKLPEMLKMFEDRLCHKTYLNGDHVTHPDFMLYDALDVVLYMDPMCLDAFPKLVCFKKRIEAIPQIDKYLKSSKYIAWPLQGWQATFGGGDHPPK
Procedure: FIGS. 5A-C are a set of three images of Western blots showing the identification of interaction motif of a2N that is involved in specific binding with the Sec7 domain of ARNO. 5A, The catalytic Sec7 domain of ARNO interacts with two a2N-derived peptides, a2N-01 and a2N-03, in pull-down experiments. The peptide pull-down assay was performed with six a2N-derived interaction peptides immobilized on streptavidin-beads and incubated with purified recombinant GST-only or GST-Sec7 domain. Interacting complexes were eluted and analyzed by Western blotting using monoclonal anti-GST antibodies as described below. The loading controls for GST-only (lane 1) or GST-Sec7 (lane 2) are shown. 5B, 5C: Peptide a2N-01 specifically interacts with Sec7 but not PH-domain (5B) or PB-domain (5C) of ARNO. The peptide pull-down assay was performed with peptides a2N-01 and a2N-03 immobilized on streptavidin-beads and incubated with purified recombinant GST-PH domain (5B) or GST-PB domain (5C). Interacting complexes were eluted and analyzed by Western blotting using monoclonal anti-GST antibodies. The loading control of GST-PH-domain (5B) or GST-PB-domain (5C) is shown on the left.
These a2N-derived peptides were immobilized by an N-terminal biotin-tag, which ensured the same efficiency and equivalent binding to streptavidin-agarose beads. Simultaneous pull-down experiments with immobilized peptides were performed using highly purified recombinant GST-only or GST-Sec7-6His as described below. […] To remove unbound peptides, beads were collected by centrifugation and washed in 500 μl ice-cold binding buffer. Next, equal amounts (20 pmoles) of highly purified recombinant GST-only or GST-Sec7-6His were added to the beads containing immobilized peptides and incubated for 2 hours at 4° C. in 500 μl of binding buffer. After washing beads four times in ice-cold binding buffer, the interacting complexes were eluted by boiling in SDS-PAGE sample buffer for 10 min at 95° C., resolved by SDS-PAGE and analyzed by Western blotting using monoclonal anti-GST antibody.

[4] = molecular target: T3, purified 6His-a2N (recombinant a2N …); experiment: SPR (BIAcore T100), a2N immobilised on CM4 chip, ARNO(wt) as analyte, bivalent analyte fit
Procedure: All reagents, including buffers, sensor chips and the amine coupling kit, were obtained from GE Healthcare. For kinetic analysis of the binding of ARNO(wt) with a2N(wt), purified 6His-a2N (5 μg/ml) in 10 mM sodium acetate (pH 4.0) was immobilized at 80 response units (RU) on a CM4 sensor chip using an amine coupling kit according to the manufacturer's instructions. The same kit was used to perform blank immobilization to create a reference surface on the same chip. Samples of purified GST-ARNO(wt) at concentrations ranging from 0.25-4 μM were injected for 6 min over active and reference surfaces at a flow rate of 30 μl/min in NBS-EP, 1 mM DTT running buffer (10 mM Hepes, pH 7.4, 150 mM NaCl, 3 mM EDTA, 0.05% Surfactant P20, 1 mM DTT). For kinetic analysis of the binding of the ARNO Sec7-domain with a2N-01 peptide, neutravidin (10 μg/ml) in 10 mM sodium acetate (pH 5.0) was immobilized at about 1200 RU on two surfaces of a CM4 sensor chip using an amine coupling kit. Following that, biotinylated a2N-01 peptide (50 RU) and amine-PEG₃-biotin (25 RU) were irreversibly captured by neutravidin to create active and a reference surfaces, respectively. Purified Sec7-6His recombinant protein was injected for 3.5 min over active and reference surfaces at concentrations ranging from 0.05-1 μM and a flow rate of 100 μl/min in NBS-EP, 1 mM DTT running buffer. Dissociation of the complexes was monitored for 10 min, and then the regeneration of the sensor surfaces was performed using 0.05% SDS with 1-min injection in the running buffer at a 20 μl/min flow rate. BIAcore™ T100 Evaluation software was used to calculate the association and dissociation rate constants (kₒₙ and koff) with a 1:1 fitting model. The dissociation constant (KD) was determined from the kₒₙ/koff values. To estimate affinity of interaction the corresponding free energy of binding ΔGbind=RTlnKD was calculated as previously described (Marles et al., Mol Cell 14 (2004) 813-823).
Specific concentration-dependent responses were obtained for both interactions. […]

| Molecule | interaction of a2N-derived peptide with GST-ARNO(wt) in pull-down [1] | interaction with ARNO (asterisk mark in Table 1) [1] | binding result [3] | also measured |
| --- | --- | --- | --- | --- |
| Bio-GYTIVTYAELDECLEDP-Cys (GYTIVTYAELDECLEDPC) [a2N-11, AA 198-214 of a2N] | specific interaction; also recorded: capable of interaction with ARNO | Bio-GYTIVTYAELDECLEDP-Cys * | – | – |
| Sec7/PH-linker: peptide corresponding to the Sec7/PH-linker region (242-261aa) of ARNO, SEQ ID NO:31 (PFKIPEDDGNDLTHTFFNPD) | – | – | – | interaction of ARNO-derived peptide with a2N [2]: reproducibly observed |
| Bio-KHVLEMQEQLQKLEVELREVTKNKEKLRKNLLELVE-Cys (KHVLEMQEQLQKLEVELREVTKNKEKLRKNLLELVEC) [a2N-06, AA 92-127, predicted CC-domain of a2N] | did not bind | – | – | – |
| Bio-ETGEVIKWYVFLISFW-Cys (ETGEVIKWYVFLISFWC) [a2N-12, AA 215-230 of a2N] | specific interaction; also recorded: capable of interaction with ARNO | Bio-ETGEVIKWYVFLISFW-Cys * | – | – |
| Bio-NMCSFDVTNKCLIAEVWCP-Cys (NMCSFDVTNKCLIAEVWCPC) [a2N-18, AA 313-331 of a2N] | specific interaction; also recorded: capable of interaction with ARNO | Bio-NMCSFDVTNKCLIAEVWCP-Cys * | – | – |
| Bio-YGVGSYREVNPALFTII-Cys (YGVGSYREVNPALFTIIC) [a2N-22, AA 386-402 of a2N] | specific interaction; also recorded: capable of interaction with ARNO | Bio-YGVGSYREVNPALFTII-Cys * | – | – |
| ARNO375-440^P: phosphorylated version (Ser392) of the ARNO PB-domain peptide, SEQ ID NO:33 (VSVDPFYEMLAARKKRI[pS]VKKKQEQP) | – | – | – | interaction of ARNO-derived peptide with a2N [2]: completely abolished |
| Biotin-GYTIVTYAELDECLEDPC (cysteine pairing not given here, also called a2N198-214) [a2N-11] | – | – | no binding | – |
| Biotin-YGVGSYREVNPALFTIIC [a2N-22] | – | – | no binding | – |
| Biotin-NMCSFDVTNKCLIAEVWCPC (cysteine pairing not given here, also called a2N313-331) [a2N-18] | – | – | no binding | – |
| Biotin-ETGEVIKWYVFLISFWC (also called a2N215-230) [a2N-12] | – | – | no binding | – |
| Biotin-VQFRDLNQNVSSFQRC (also called a2N35-49) [a2N-03] | – | – | no binding | – |
| B1 | – | – | – | Kd [4]: 313 nM; koff [4]: 0.0015 s⁻¹; kon [4]: 4770 M⁻¹ s⁻¹ |
